In PMC5101480 (Scientific Reports, 2016):
Entries after “also recorded” stand apart in the source; their conditions may differ.

Legend:
[1] = target: T1, TPR domain of SGTA (SGTA_TPR) (Homo sapiens, UniProt O43765); assay: Size exclusion chromatography (SEC) complex formation with SGTA_TPR; assay type: binding; details: mixed in 1:1 molar ratio
T1 construct: thioredoxin A (TxA) fusion (N, cleaved yes); hexahistidine tag (N, cleaved yes); made in house; host or cells: E. coli BL21(DE3) Rosetta
Description: In order to understand molecular details underlying the interaction between SGTA and Rpn13, solution NMR studies were carried out on excised domains of SGTA and Rpn13 guided by earlier mapping studies. Reciprocal chemical shift perturbation (CSP) experiments were performed by titrating unlabelled Rpn13 C-terminal domain (residues 260–407; hereafter described as Rpn13_260-407) into ^15N-labelled TPR domain of SGTA (residues 84–211; hereafter referred to as SGTA_TPR) and vice versa. Assignments of backbone amide resonances were obtained from the BMRB (accession numbers 5709 and 17286, for SGTA_TPR and Rpn13_260-407, respectively). The ^1H-^15N HSQC spectra of both SGTA_TPR and Rpn13_260-407 show binding in a fast exchange regimen (Figs 1A and 2A). […] Binding was further confirmed by size-exclusion chromatography (SEC) and isothermal titration calorimetry (ITC) (Fig. 1C,D). […]
SGTA_TPR and Rpn13 plasmids were transformed into E. coli BL21(DE3) Rosetta cells, with protein expression induced by adding 0.3–0.5 mM isopropyl-β-D-thiogalactopyranoside (IPTG) to bacterial cultures in LB media at OD600 ≈ 0.8, followed by overnight incubation at 18 °C. […] Proteins were concentrated using Vivaspin concentrators (Sartorius Stedin) and sample purity and homogeneity was assessed by SDS-PAGE, mass spectrometry and NMR. […]

[2] = target: T1, TPR domain of SGTA (SGTA_TPR); assay: Solution NMR CSP titration of unlabelled ligand into 15N-labelled SGTA_TPR; assay type: binding; details: pH 6.0, 25 °C
Description: In order to understand molecular details underlying the interaction between SGTA and Rpn13, solution NMR studies were carried out on excised domains of SGTA and Rpn13 guided by earlier mapping studies. Reciprocal chemical shift perturbation (CSP) experiments were performed by titrating unlabelled Rpn13 C-terminal domain (residues 260–407; hereafter described as Rpn13_260-407) into ^15N-labelled TPR domain of SGTA (residues 84–211; hereafter referred to as SGTA_TPR) and vice versa. Assignments of backbone amide resonances were obtained from the BMRB (accession numbers 5709 and 17286, for SGTA_TPR and Rpn13_260-407, respectively). The ^1H-^15N HSQC spectra of both SGTA_TPR and Rpn13_260-407 show binding in a fast exchange regimen (Figs 1A and 2A). […] Binding was further confirmed by size-exclusion chromatography (SEC) and isothermal titration calorimetry (ITC) (Fig. 1C,D). […] ITC experiments yield a dissociation constant of 16.1 ± 1.4 μM in keeping with the value obtained from NMR.
(§1) Protein samples at concentrations between 300 μM and 1 mM were prepared in 10% D2O (Sigma Aldrich), 10 mM potassium phosphate pH 6.0, 100 mM NaCl and 250 μM TCEP buffer (with 10 μM DSS for proton chemical shift referencing). All NMR experiments were acquired in 5 mm NMR tubes at 25 °C on 500 MHz and 700 MHz Bruker Avance spectrometers equipped with cryoprobes and operated by the TopSpin 3.1 software package. All NMR spectra were processed with TopSpin and analysed with CcpNMR Analysis[35]. Proteins used for NMR titrations were dialysed overnight against the same buffer (10 mM potassium phosphate pH 6.0, 100 mM NaCl and 250 μM TCEP) and mixed in different molar ratios, with the concentration of the labelled protein maintained constant. ^1H-^15N HSQC experiments were recorded for each titration point at 25 °C. Chemical shift perturbation (CSP) values were calculated for each amide signal using the following formula: […]
where Δδ1H and Δδ15N are the chemical shift differences for the same amide in its free and bound state (δfree−δbound) and for proton and nitrogen chemical shift values respectively. […]

[3] = tested on: K160E/R164E double mutant SGTA_TPR; assay: Reciprocal NMR CSP titration, Rpn13_260-407 with K160E/R164E double mutant SGTA_TPR; assay type: binding, human; details: up to 6-fold molar excess of Rpn13_260-407 and vice versa; pH 6.0, 25 °C
Excerpt: The ‘two-carboxylate clamp’ mode of binding is a well-characterised mechanism of molecular recognition by TPR domains in the context of their binding to the conserved C-terminal IEEVD and MEEVD motifs of Hsp70 and Hsp90 chaperones, respectively. It is known that conserved residues present on the concave surface of the TPR domain form a positively charged region within this groove that clamp, the two carboxylate groups of the terminal aspartate (Fig. 3D). […]
as §1, with “All NMR experiments were acquired in 5 mm NMR tubes at 25 °C on 500 MHz and 700 MHz Bruker Avance spectrometers equipped with cryoprobes and operated by the TopSpin 3.1 software package.” left out

T1 sequence (O43765 84-211): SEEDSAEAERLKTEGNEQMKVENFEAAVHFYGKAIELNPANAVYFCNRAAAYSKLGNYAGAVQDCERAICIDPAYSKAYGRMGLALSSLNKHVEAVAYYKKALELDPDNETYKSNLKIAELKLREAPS

effect on SGTA_TPR helix-7 residues 203–209 amide signals ([2]; 3-fold molar excess of unlabelled ligand): perturbed
B1: Rpn13_260-407: Rpn13 C-terminal domain (residues 260–407), human, expressed in E. coli (protein)
chain: QPIQLSDLQSILATMNVPAGPAGGQQVDLASVLTPEIMAPILANADVQERLLPYLPSGESLPQTADEIQNTLTSPQFQQALGMFSAALASGQLGPLMCQFGLPAEAVEAANKGDVEAFAKAMQNNAKPEQKEGDTKDKKDEEEDMSLD
modifications: left off: thioredoxin A (TxA), N-terminal, cleaved | His6, N-terminal, cleaved
notes: Rpn13 C-terminal domain (residues 260–407), human, expressed in E. coli
SEC complex formation with SGTA_TPR [1]: clearly indicative of a stable complex; also recorded: formation of a stable complex | CSP of SGTA_TPR backbone amide signals, result in words ([2]; unlabelled ligand into 15N-labelled SGTA_TPR, Rpn13_260-407 up to 8 equivalents, Rpn13_260-402 up to 6-fold molar excess): Widespread perturbation of backbone amide signals; also recorded: cannot be fitted to a meaningful binding isotherm | CSP with K160E/R164E SGTA_TPR, result in words [3]: disruption of the SGTA_TPR-Rpn13_260-407 interaction
